Source: US20230265151A1, “GIP/GLP1 CO-AGONIST COMPOUNDS” (priority 2020, published 2023)
*1 amine or outer side, *2 acyl side, *3 side chain or, on linkers, in order; H or OH if unused. Where no end group is shown, it is not given here. Side-chain parts run from the residue outwards. [ ]: non-standard residue; d: D form. The star is where a group is joined. αMePhe(2-F) = C[C@](N)(Cc1ccccc1F)C(=O)O; γGlu = O=C(O)[C@H](CCC(=O)[*:2])N[*:1]; C14 diacid = O=C(O)CCCCCCCCCCCCC(=O)*; εLys = N[C@@H](CCCCN[*:1])C(=O)[*:2]; αMeY = C[C@](N)(Cc1ccc(O)cc1)C(=O)O; αMeF = C[C@](N)(Cc1ccccc1)C(=O)O; αMeL = CC(C)C[C@](C)(N)C(=O)O; Orn = NCCC[C@H](N)C(=O)O; AEEA = NCCOCCOCC(=O)O; Aib = CC(C)(N)C(=O)O

B1: Example 173 (peptide)
peptide: YXEGTXTSDXSIXLDXKAQXEXIXXLIEGGKSSGAPPPS
modifications: Aib2, αMeF6, 4Pal10, αMeL13, Orn16, K17(Z), Aib20, αMeF22, D-Glu24, αMeY25, K31(Z), C-terminal NH2; Z = AEEA2-(γ-Glu)-CO-(CH2)10-CH3
B2: Example 199 (peptide)
peptide: YXEGTXTSDXXIXLDXKAQXEFIXXLIEGGKSSGAPPPS
modifications: Aib2, αMeF(2F)6, 4Pal10, Dap11, αMeL13, Orn16, K17(Z), Aib20, D-Glu24, αMeY25, K31(Z), C-terminal NH2; Z = AEEA2-(γ-Glu)-CO-(CH2)12-CO2H
B3: Example 193 (peptide)
peptide: YXEGTXTSDXSIXLDXIAQXEFIKXLIEGGKSSGAPPPS
modifications: Aib2, αMeF(2F)6, 4Pal10, αMeL13, Orn16, Aib20, K24(Z), αMeY25, K31(Z), C-terminal NH2; Z = AEEA2-CO-(CH2)12-CO2H
B4: Example 179 (peptide)
peptide: YXEGTXTSDVSIXLDXKAQXEFIXXLIEGGKSSGAPPPS
modifications: Aib2, αMeF6, αMeL13, Orn16, K17(Z), Aib20, D-Glu24, αMeY25, K31(Z), C-terminal NH2; Z = AEEA2-(γ-Glu)-CO-(CH2)12-CO2H
B5: Example 198 (peptide)
peptide: YXEGTXTSDXSIXLDXIAQXEFIKXLIEGGKSSGAPPPS
modifications: Aib2, αMeF(2F)6, 4Pal10, αMeL13, Orn16, Aib20, K24(Z), αMeY25, K31(Z), C-terminal NH2; Z = (εK)-(εK)-(γ-Glu)-CO-(CH2)12-CO2H
B6: Example 181 (peptide)
peptide: YXEGTXTSDVSIXLDXKAQXEFIKXLIEGGPSSGAPPPS
modifications: Aib2, αMeF6, αMeL13, Orn16, K17(Z), Aib20, K24(Z), αMeY25, C-terminal NH2; Z = AEEA2-(γ-Glu)-CO-(CH2)12-CO2H
B7: Example 195 (peptide)
peptide: YXEGTXTSDXSIXLDXIAQXKFIXXLIEGGKSSGAPPPS
modifications: not fully specified; Aib2, αMeF(2F)6, 4Pal10, αMeL13, Orn16, Aib20, K21(AEEA2-CO-(CH2)12-CO2H), D-Glu24, αMeY25, K31(AEEA2-CO-(CH2)2-CO2H as printed), C-terminal NH2
B8: Example 174 (peptide)
peptide: YXEGTXTSDXSIXLDXKAQXEXIXXLIEGGKSSGAPPPS
modifications: Aib2, αMeF6, 4Pal10, αMeL13, Orn16, K17(Z), Aib20, αMeF22, D-Glu24, αMeF25, K31(Z), C-terminal NH2; Z = AEEA2-(γ-Glu)-CO-(CH2)10-CH3
B9: Example 197 (peptide)
peptide: YXEGTXTSDXSIXLDXIAQXEFIKXLIEGGKSSGAPPPS
modifications: Aib2, αMeF(2F)6, 4Pal10, αMeL13, Orn16, Aib20, K24(Z), αMeY25, K31(Z), C-terminal NH2; Z = (εK)-(γ-Glu)-CO-(CH2)12-CO2H
B10: Example 194 (peptide)
peptide: YXEGTXTSDXSIXLDXIAQXEFIKXLIEGGPSSGAPPPSK
modifications: Aib2, αMeF(2F)6, 4Pal10, αMeL13, Orn16, Aib20, K24(Z), αMeY25, K40(Z), C-terminal NH2; Z = AEEA2-CO-(CH2)12-CO2H
B11: Example 196 (peptide)
peptide: YXEGTXTSDXSIXLDXIAQXKFIXXLIEGGPSSGAPPPSK
modifications: Aib2, αMeF(2F)6, 4Pal10, αMeL13, Orn16, Aib20, K21(Z), D-Glu24, αMeY25, K40(Z), C-terminal NH2; Z = AEEA2-CO-(CH2)12-CO2H
B12: Y-Aib-EGT-αMeF(2F)-TSDV-Aib-I-αMeL-LD-Orn-K((εK)-(γ-Glu)-CO-(CH2)12-CO2H)AQ-Aib-EFI-(D-Glu)-αMeY-LIEGGK((εK)-(γ-Glu)-CO-(CH2)12-CO2H)SSGAPPPS-NH2 (peptide)
peptide: Y[Aib]EGT[αMePhe(2-F)]TSDV[Aib]I[αMeL]LD[Orn]K([εLys-γGlu-C14 diacid])AQ[Aib]EFI[dE][αMeY]LIEGGK([εLys-γGlu-C14 diacid])SSGAPPPS-NH2
modifications: N-terminus assumed
SMILES: CC[C@H](C)[C@H](NC(=O)[C@H](CC(C)C)NC(=O)[C@](C)(Cc1ccc(O)cc1)NC(=O)[C@@H](CCC(=O)O)NC(=O)[C@@H](NC(=O)[C@H](Cc1ccccc1)NC(=O)[C@H](CCC(=O)O)NC(=O)C(C)(C)NC(=O)[C@H](CCC(N)=O)NC(=O)[C@H](C)NC(=O)[C@H](CCCCNC(=O)[C@@H](N)CCCCNC(=O)CC[C@H](NC(=O)CCCCCCCCCCCCC(=O)O)C(=O)O)NC(=O)[C@H](CCCN)NC(=O)[C@H](CC(=O)O)NC(=O)[C@H](CC(C)C)NC(=O)[C@](C)(CC(C)C)NC(=O)[C@@H](NC(=O)C(C)(C)NC(=O)[C@@H](NC(=O)[C@H](CC(=O)O)NC(=O)[C@H](CO)NC(=O)[C@@H](NC(=O)[C@](C)(Cc1ccccc1F)NC(=O)[C@@H](NC(=O)CNC(=O)[C@H](CCC(=O)O)NC(=O)C(C)(C)NC(=O)[C@@H](N)Cc1ccc(O)cc1)[C@@H](C)O)[C@@H](C)O)C(C)C)[C@@H](C)CC)[C@@H](C)CC)C(=O)N[C@@H](CCC(=O)O)C(=O)NCC(=O)NCC(=O)N[C@@H](CCCCNC(=O)[C@@H](N)CCCCNC(=O)CC[C@H](NC(=O)CCCCCCCCCCCCC(=O)O)C(=O)O)C(=O)N[C@@H](CO)C(=O)N[C@@H](CO)C(=O)NCC(=O)N[C@@H](C)C(=O)N1CCC[C@H]1C(=O)N1CCC[C@H]1C(=O)N1CCC[C@H]1C(=O)N[C@@H](CO)C(N)=O
B13: Y-Aib-EGT-αMeF(2F)-TSDV-Aib-I-αMeL-LD-Orn-K((2-[2-(2-Amino-ethoxy)-ethoxy]-acetyl)2-(γ-Glu)-CO-(CH2)12-CO2H)AQ-Aib-EFI-(D-Glu)-αMeY-LIEGGK((2-[2-(2-Amino-ethoxy … (peptide)
peptide: Y[Aib]EGT[αMePhe(2-F)]TSDV[Aib]I[αMeL]LD[Orn]K([AEEA-AEEA-γGlu-C14 diacid])AQ[Aib]EFI[dE][αMeY]LIEGGK([AEEA-AEEA-γGlu-C14 diacid])SSGAPPPS-NH2
modifications: N-terminus assumed
SMILES: CC[C@H](C)[C@H](NC(=O)[C@H](CC(C)C)NC(=O)[C@](C)(Cc1ccc(O)cc1)NC(=O)[C@@H](CCC(=O)O)NC(=O)[C@@H](NC(=O)[C@H](Cc1ccccc1)NC(=O)[C@H](CCC(=O)O)NC(=O)C(C)(C)NC(=O)[C@H](CCC(N)=O)NC(=O)[C@H](C)NC(=O)[C@H](CCCCNC(=O)COCCOCCNC(=O)COCCOCCNC(=O)CC[C@H](NC(=O)CCCCCCCCCCCCC(=O)O)C(=O)O)NC(=O)[C@H](CCCN)NC(=O)[C@H](CC(=O)O)NC(=O)[C@H](CC(C)C)NC(=O)[C@](C)(CC(C)C)NC(=O)[C@@H](NC(=O)C(C)(C)NC(=O)[C@@H](NC(=O)[C@H](CC(=O)O)NC(=O)[C@H](CO)NC(=O)[C@@H](NC(=O)[C@](C)(Cc1ccccc1F)NC(=O)[C@@H](NC(=O)CNC(=O)[C@H](CCC(=O)O)NC(=O)C(C)(C)NC(=O)[C@@H](N)Cc1ccc(O)cc1)[C@@H](C)O)[C@@H](C)O)C(C)C)[C@@H](C)CC)[C@@H](C)CC)C(=O)N[C@@H](CCC(=O)O)C(=O)NCC(=O)NCC(=O)N[C@@H](CCCCNC(=O)COCCOCCNC(=O)COCCOCCNC(=O)CC[C@H](NC(=O)CCCCCCCCCCCCC(=O)O)C(=O)O)C(=O)N[C@@H](CO)C(=O)N[C@@H](CO)C(=O)NCC(=O)N[C@@H](C)C(=O)N1CCC[C@H]1C(=O)N1CCC[C@H]1C(=O)N1CCC[C@H]1C(=O)N[C@@H](CO)C(N)=O
B14: Example 191 (peptide)
peptide: YXEGTXTSDXSIXLDXIAQXKFIKXLIEGGPSSGAPPPS
modifications: Aib2, αMeF(2F)6, 4Pal10, αMeL13, Orn16, Aib20, K21(Z), K24(Z), αMeY25, C-terminal NH2; Z = AEEA2-CO-(CH2)12-CO2H
B15: Example 192 (peptide)
peptide: YXEGTXTSDXSIXLDXIAQXEFIKXLIKGGPSSGAPPPS
modifications: Aib2, αMeF(2F)6, 4Pal10, αMeL13, Orn16, Aib20, K24(Z), αMeY25, K28(Z), C-terminal NH2; Z = AEEA2-CO-(CH2)12-CO2H

Legend:
Assay in all cases: cell-based or functional assay
[1] = molecular target: T1, human glucose-dependent insulinotropic polypeptide (GIP) receptor (human, UniProt P48546 22-466)
T1 sequence (looked up): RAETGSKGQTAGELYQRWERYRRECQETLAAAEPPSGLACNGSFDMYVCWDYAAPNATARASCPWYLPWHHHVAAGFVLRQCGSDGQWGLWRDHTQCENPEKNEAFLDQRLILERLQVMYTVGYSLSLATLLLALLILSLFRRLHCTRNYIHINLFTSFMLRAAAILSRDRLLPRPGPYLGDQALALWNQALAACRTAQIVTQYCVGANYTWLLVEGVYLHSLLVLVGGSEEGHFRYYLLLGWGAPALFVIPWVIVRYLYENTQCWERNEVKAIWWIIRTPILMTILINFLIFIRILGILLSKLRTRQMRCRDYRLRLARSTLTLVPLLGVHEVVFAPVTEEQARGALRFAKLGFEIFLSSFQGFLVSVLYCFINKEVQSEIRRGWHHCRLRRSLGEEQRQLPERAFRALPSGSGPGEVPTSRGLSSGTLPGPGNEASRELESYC

[2] = molecular target: human glucagon-like peptide-1 (GLP-1) receptor (human, UniProt P43220 24-463)
[3] = molecular target: human glucagon receptor (human, UniProt P47871 26-477)
[4] = molecular target: T2, human GIP receptor (human, UniProt P48546 22-466)
T2 sequence (looked up): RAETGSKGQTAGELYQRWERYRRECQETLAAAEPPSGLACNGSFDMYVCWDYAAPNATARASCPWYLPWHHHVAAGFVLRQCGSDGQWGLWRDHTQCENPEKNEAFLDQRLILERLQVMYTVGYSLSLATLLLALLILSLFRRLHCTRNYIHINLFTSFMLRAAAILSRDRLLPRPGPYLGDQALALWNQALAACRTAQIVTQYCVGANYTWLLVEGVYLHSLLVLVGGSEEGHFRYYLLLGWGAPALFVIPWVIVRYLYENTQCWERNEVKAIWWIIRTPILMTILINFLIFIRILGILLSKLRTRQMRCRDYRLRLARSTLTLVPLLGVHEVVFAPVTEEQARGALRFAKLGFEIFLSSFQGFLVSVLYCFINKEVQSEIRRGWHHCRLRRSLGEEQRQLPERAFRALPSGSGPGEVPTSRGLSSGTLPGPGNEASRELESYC

[5] = molecular target: human GLP-1 receptor (human, UniProt P43220 24-463)

| Binder | cAMP EC50 [1] [nM] | cAMP Emax [1] [%] | cAMP EC50 [2] [nM] | cAMP Emax [2] [%] | cAMP EC50 [3] [nM] | cAMP EC50 (1.0% HSA) [4] [nM] | cAMP EC50 (1.0% HSA) [5] [nM] |
| --- | --- | --- | --- | --- | --- | --- | --- |
| B1 | 0.0155 | 87.8 | 0.343 | 89.9 | > 9950 | – | – |
| B2 | 0.0587 | 96.9 | 3.2 | 96.7 | > 9950 | – | – |
| B3 | 0.0201 | 97.2 | 0.382 | – | > 9950 | – | – |
| B4 | 0.15 | 91 | 0.461 | 99 | > 9950 | – | – |
| B5 | 0.0269 | 94 | 0.362 | – | > 9950 | – | – |
| B6 | 0.154 | 94.6 | 0.182 | – | > 9950 | – | – |
| B7 | 0.0219 | 88.5 | 0.343 | – | > 9950 | – | – |
| B8 | 0.0284 | 92.2 | 0.33 | 98.2 | > 9950 | – | – |
| B9 | 0.0338 | 102 | 0.336 | – | > 9950 | – | – |
| B10 | 0.0233 | 93.1 | 0.317 | 103 | > 9950 | – | – |
| B11 | 0.0232 | – | 0.356 | – | > 9950 | – | – |
| B12 | – | – | – | – | – | 3.62 | 26.6 |
| B13 | – | – | – | – | – | 7.05 | 20.4 |
| Y[Aib]EGT[αMeF]TSDV[Aib]I[αMeL]LD[Orn]K([AEEA-AEEA-γGlu-C14 diacid])AQ[Aib]EFIK([AEEA-AEEA-γGlu-C14 diacid])[αMeY]LIEGGKSSGAPPPS-NH2 (not fully specified) [Example 182] | 0.368 | 89 | 0.185 | 96.9 | > 9950 | – | – |
| B14 | 0.0601 | 90 | 0.926 | 98.6 | > 9950 | – | – |
| B15 | 0.0375 | – | 0.518 | – | > 9950 | – | – |
